Experiments:
[1] = target: CAPZA1 (human) (UniProt P52907); assay: co-IP/MS, IgG control IP of N-FLAG B3GNT2 cell lysate
[2] = target: UQCRC2 (human) (UniProt P22695); assay: as above
[3] = target: SLC25A4 (human) (UniProt P12235); assay: as above
[4] = target: RPL14 (human) (UniProt P50914); assay: as above
[5] = target: FKBP10 (human) (UniProt Q96AY3); assay: as above
[6] = target: GCN1 (human) (UniProt Q92616); assay: as above
[7] = target: RPL30 (human) (UniProt P62888); assay: as above
[8] = target: CANX (human) (UniProt P27824); assay: as above
[9] = target: PCBP1 (human) (UniProt Q15365); assay: as above
[10] = target: ATP1A1 (human) (UniProt P05023); assay: as above
[11] = target: RPS9 (human) (UniProt P46781); assay: as above
[12] = target: TGM3 (human) (UniProt Q08188); assay: as above
[13] = target: CAPZB (human) (UniProt P47756); assay: as above
[14] = target: RPLPO (human) (UniProt P05388); assay: as above
[15] = target: PIP (human) (UniProt P12273); assay: as above
[16] = target: RCN2 (human) (UniProt Q14257); assay: as above
[17] = target: RPS12 (human) (UniProt P25398); assay: as above
[18] = target: TUBB (human) (UniProt P07437); assay: as above
[19] = target: RPS15 (human) (UniProt P62841); assay: as above
[20] = target: FAM3C (human) (UniProt Q92520); assay: as above
[21] = target: RPS3A (human) (UniProt P61247); assay: as above
[22] = target: PRDX2 (human) (UniProt P32119); assay: as above
[23] = target: DNAJA1 (human) (UniProt P31689); assay: as above
[24] = target: LRP1 (human) (UniProt Q07954); assay: as above
[25] = target: SERPINB12 (UniProt Q96P63); assay: co-IP with anti-FLAG, mass spectrometry; N-FLAG B3GNT2
[26] = target: SSR1 (UniProt P43307); assay: as above
[27] = target: YWHAZ (UniProt P63104); assay: as above
[28] = target: STRAP (UniProt Q9Y3F4); assay: as above
[29] = target: PPIA (UniProt P62937); assay: as above
[30] = target: FABP5 (UniProt Q01469); assay: as above
[31] = target: UBA52 (UniProt P62987); assay: as above
[32] = target: SPRR2E (UniProt P22531); assay: as above
[33] = target: ATP5F1B (UniProt P06576); assay: as above
[34] = target: AHNAK (UniProt Q09666); assay: as above
[35] = target: ACTR3 (UniProt P61158); assay: as above
[36] = target: S100A9 (UniProt P06702); assay: as above
[37] = target: ENO1 (UniProt P06733); assay: as above
[38] = target: S100A8 (UniProt P05109); assay: as above
[39] = target: TRIM21 (UniProt P19474); assay: as above
[40] = target: PCMT1 (UniProt P22061); assay: as above

Sequence of YWHAZ (P63104 whole entry): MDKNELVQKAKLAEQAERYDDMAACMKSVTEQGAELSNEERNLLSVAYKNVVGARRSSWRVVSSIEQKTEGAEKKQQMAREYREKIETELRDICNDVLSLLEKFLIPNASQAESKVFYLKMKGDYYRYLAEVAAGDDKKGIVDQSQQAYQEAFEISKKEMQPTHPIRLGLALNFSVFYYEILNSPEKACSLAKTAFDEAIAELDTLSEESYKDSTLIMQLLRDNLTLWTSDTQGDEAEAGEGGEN
Sequence of SLC25A4 (human) (P12235 2-298 limits assumed): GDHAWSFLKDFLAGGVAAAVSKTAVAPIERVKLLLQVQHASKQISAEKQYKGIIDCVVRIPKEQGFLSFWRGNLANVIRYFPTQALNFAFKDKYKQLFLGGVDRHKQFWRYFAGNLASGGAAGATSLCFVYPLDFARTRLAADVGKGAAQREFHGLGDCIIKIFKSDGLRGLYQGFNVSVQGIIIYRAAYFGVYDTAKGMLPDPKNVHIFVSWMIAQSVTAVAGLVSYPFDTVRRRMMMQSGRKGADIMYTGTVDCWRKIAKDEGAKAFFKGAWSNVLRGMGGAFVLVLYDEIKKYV
Sequence of TUBB (human) (P07437 whole entry): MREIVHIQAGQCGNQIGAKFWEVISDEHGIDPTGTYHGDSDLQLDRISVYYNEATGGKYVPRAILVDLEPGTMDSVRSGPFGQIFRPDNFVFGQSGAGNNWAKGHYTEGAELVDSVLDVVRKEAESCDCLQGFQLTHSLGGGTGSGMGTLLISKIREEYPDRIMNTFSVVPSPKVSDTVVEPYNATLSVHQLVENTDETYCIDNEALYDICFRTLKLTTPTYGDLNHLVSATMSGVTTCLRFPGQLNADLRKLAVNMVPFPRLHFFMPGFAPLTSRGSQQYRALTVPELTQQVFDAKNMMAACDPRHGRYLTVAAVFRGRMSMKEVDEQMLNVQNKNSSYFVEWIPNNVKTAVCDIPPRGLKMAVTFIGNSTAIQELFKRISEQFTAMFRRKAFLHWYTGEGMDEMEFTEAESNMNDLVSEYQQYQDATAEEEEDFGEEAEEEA
Sequence of PRDX2 (human) (P32119 2-198 limits assumed): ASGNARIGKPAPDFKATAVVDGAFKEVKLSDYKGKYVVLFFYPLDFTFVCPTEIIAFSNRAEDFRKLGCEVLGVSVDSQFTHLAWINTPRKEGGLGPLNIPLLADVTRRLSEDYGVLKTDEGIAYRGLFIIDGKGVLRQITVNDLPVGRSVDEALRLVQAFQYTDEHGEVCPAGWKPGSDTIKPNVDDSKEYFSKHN
Sequence of S100A8 (P05109 whole entry): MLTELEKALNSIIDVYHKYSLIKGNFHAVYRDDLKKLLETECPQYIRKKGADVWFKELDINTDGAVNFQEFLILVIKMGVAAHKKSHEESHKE
Sequence of GCN1 (human) (Q92616 2-2671 limits assumed): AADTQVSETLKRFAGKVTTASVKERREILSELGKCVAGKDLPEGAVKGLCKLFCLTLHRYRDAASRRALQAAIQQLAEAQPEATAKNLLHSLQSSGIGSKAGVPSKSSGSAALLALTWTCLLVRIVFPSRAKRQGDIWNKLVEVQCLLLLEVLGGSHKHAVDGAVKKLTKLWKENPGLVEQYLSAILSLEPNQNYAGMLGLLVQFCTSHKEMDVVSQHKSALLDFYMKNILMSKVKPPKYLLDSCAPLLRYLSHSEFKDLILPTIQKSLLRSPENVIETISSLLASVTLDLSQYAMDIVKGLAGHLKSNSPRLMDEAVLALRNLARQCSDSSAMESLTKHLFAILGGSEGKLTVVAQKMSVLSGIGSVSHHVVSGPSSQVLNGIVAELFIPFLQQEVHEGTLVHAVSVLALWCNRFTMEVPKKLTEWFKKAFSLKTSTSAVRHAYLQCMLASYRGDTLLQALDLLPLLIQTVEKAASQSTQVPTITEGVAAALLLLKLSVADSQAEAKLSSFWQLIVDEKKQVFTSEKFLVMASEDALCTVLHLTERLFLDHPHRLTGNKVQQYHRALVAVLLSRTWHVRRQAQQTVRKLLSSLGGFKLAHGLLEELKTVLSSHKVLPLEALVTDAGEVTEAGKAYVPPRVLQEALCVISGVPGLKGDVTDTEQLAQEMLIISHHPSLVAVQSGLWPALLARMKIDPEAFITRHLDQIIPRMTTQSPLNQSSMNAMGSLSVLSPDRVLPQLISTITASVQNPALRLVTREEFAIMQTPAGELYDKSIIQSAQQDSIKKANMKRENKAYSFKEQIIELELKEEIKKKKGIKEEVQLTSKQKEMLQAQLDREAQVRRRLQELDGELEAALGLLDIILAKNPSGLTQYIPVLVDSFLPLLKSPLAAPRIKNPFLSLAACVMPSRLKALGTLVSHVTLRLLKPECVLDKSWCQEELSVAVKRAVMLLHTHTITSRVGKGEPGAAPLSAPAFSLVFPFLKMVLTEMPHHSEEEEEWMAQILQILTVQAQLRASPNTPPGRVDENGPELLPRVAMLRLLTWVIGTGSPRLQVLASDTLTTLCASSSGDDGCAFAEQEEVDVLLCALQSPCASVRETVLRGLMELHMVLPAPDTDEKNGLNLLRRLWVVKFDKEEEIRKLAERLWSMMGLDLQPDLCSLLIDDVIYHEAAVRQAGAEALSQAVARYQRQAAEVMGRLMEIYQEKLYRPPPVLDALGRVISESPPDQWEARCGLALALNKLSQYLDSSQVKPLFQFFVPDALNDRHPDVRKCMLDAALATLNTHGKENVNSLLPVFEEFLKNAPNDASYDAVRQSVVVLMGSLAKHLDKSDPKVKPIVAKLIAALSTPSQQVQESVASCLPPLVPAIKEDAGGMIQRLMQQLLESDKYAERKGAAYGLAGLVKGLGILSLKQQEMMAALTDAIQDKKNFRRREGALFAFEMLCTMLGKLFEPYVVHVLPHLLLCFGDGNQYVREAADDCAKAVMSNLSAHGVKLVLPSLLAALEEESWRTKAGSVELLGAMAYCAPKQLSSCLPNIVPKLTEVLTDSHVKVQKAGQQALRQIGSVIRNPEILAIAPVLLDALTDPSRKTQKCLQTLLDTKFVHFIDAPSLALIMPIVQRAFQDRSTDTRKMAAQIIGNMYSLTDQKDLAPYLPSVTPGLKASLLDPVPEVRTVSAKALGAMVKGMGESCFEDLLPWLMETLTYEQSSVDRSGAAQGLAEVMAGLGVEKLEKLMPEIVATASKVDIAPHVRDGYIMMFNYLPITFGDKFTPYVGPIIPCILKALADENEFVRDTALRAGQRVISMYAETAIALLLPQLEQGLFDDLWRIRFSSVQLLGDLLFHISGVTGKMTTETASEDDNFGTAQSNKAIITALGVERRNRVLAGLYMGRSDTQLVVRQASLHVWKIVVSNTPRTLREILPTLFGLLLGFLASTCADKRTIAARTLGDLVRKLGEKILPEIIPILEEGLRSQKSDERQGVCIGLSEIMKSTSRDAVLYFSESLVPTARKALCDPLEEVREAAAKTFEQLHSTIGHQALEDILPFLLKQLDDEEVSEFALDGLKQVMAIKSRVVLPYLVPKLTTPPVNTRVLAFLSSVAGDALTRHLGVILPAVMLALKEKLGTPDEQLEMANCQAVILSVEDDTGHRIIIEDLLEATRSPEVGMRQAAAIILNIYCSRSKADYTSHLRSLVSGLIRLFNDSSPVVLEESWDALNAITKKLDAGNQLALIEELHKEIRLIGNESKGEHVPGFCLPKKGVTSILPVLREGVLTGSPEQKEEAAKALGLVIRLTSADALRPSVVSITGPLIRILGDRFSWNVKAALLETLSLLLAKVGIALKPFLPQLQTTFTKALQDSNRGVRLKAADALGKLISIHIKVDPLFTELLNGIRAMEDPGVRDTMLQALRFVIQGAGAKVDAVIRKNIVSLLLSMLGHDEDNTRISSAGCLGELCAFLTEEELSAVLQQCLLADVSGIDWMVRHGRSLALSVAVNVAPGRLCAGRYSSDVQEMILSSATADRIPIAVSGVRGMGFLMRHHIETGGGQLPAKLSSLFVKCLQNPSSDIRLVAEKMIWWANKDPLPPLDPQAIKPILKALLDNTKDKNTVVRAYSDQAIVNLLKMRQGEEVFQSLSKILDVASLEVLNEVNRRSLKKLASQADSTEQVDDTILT
Sequence of SSR1 (P43307 19-286 limits assumed): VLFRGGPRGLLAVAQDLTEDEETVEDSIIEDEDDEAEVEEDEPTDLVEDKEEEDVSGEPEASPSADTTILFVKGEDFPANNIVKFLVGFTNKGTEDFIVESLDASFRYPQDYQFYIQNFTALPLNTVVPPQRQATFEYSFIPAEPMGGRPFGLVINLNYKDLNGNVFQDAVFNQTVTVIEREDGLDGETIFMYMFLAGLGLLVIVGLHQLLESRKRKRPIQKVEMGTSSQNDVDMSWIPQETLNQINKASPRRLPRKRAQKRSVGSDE
Sequence of PIP (human) (P12273 29-146 limits assumed): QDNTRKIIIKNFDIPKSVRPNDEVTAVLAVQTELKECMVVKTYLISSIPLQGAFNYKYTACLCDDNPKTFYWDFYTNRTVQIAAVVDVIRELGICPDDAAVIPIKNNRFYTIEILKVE
Sequence of S100A9 (P06702 whole entry): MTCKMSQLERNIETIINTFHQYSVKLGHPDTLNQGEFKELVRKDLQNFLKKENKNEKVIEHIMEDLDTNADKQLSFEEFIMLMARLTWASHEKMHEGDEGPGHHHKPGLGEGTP
Sequence of RCN2 (human) (Q14257 other isoform, or with tags, fused parts or gaps limits assumed): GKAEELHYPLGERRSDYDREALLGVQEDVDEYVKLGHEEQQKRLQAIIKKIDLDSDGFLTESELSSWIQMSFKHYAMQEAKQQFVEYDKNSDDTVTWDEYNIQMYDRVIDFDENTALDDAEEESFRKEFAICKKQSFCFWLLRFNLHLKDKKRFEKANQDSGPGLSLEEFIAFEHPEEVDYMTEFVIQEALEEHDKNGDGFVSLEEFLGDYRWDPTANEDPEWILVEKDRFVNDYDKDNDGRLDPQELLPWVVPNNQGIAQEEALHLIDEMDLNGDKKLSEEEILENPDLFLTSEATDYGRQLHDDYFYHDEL
Sequence of PPIA (P62937 2-165 limits assumed): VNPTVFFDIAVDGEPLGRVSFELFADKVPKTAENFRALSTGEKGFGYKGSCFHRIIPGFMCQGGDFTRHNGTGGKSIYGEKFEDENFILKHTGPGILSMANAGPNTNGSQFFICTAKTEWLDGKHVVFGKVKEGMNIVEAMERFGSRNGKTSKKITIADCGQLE

With “IgG control (Millipore Sigma 12-371) (antibody)” the co-IP mass spectrometry count [1] was 0, the co-IP mass spectrometry count [2] was 0 and the co-IP mass spectrometry count [3] was 0. For the same substance, the co-IP mass spectrometry count [4] was 7, the co-IP mass spectrometry count [5] was 0 and the co-IP mass spectrometry count [6] was 0. The co-IP mass spectrometry count [7] was 6, the co-IP mass spectrometry count [8] was 0 and the co-IP mass spectrometry count [9] was 0. The co-IP mass spectrometry count [10] was 0, the co-IP mass spectrometry count [11] was 3 and the co-IP mass spectrometry count [12] was 2. The co-IP mass spectrometry count [13] was 2, the co-IP mass spectrometry count [14] was 0 and the co-IP mass spectrometry count [15] was 0. For the same substance, the co-IP mass spectrometry count [16] was 0, the co-IP mass spectrometry count [17] was 0 and the co-IP mass spectrometry count [18] was 10. The co-IP mass spectrometry count [19] was 5, the co-IP mass spectrometry count [20] was 0 and the co-IP mass spectrometry count [21] was 9. It also gave a co-IP mass spectrometry count [22] of 5, a co-IP mass spectrometry count [23] of 0 and a co-IP mass spectrometry count [24] of 0.
“N-terminal FLAG tagged B3GNT2 (from UniProt Q9NY97 1-397) (enzyme)” showed a co-IP mass spectrometry count [25] of 4, a co-IP mass spectrometry count [26] of 3 and a co-IP mass spectrometry count [27] of 2. For the same substance, the co-IP mass spectrometry count [28] was 4, the co-IP mass spectrometry count [29] was 6 and the co-IP mass spectrometry count [30] was 6. The co-IP mass spectrometry count [31] was 4, the co-IP mass spectrometry count [32] was 16 and the co-IP mass spectrometry count [33] was 2. It also gave a co-IP mass spectrometry count [34] of 3, a co-IP mass spectrometry count [35] of 3 and a co-IP mass spectrometry count [36] of 18. The co-IP mass spectrometry count [37] was 5, the co-IP mass spectrometry count [38] was 15 and the co-IP mass spectrometry count [39] was 6. The co-IP mass spectrometry count [40] was 4.

Reference: patent US20240261333A1, “NOVEL TARGETS FOR ENHANCING ANTI-TUMOR IMMUNITY” (THE BROAD INSTITUTE, INC., priority 2021, published 2024)
